According to patent US20060102935A1, “Transistor-based biosensors having gate electrodes coated with receptor molecules” (priority 2002, published 2006):

How the values were obtained:
[1] = biological target: T1, acetylcholine esterase (AChE) (Electrophorus electricus, UniProt O42275); assay: AChE-ISFET (AChE-FET) response to substrate and inhibitor in PBS; type: biochemical, electric eel; details: dissolved in PBS, in comparison to ACh
T1 construct: purchased Sigma C1682
Protocol: In this experiment, the ISFET has undergone covalent bonding with acetylcholine-esterase using the aforementioned cyanuryl chloride techniques. As shown in the figure, the response of the ACHE-ISFET to various doses of acetylcholine (graph I). Acetylcholine was manually applied into a solution of 5 ml Phosphate Saline Buffer (PBS) in which the ISFET resided.
Both carbamylcholine and acetylcholine have been dissolved in phosphate buffered saline (PBS).
Acetylcholine esterase (C1682, taken from electric eel), acetylcholine-iodine, acetylcholine-chloride, cyanuric chloride and eserine (physostigmine), ere purchased from Sigma and were used as supplied.
ISFETs were first rinsed with isopropanol and dried under Argon. A is solution of 0.1M cyanuric chloride (in dichloromethane) was prepared and then applied to the Al2O3 gate surface of the ISFET. ISFETs were then dried with Argon and heated at 70° C. for 15 minutes, then rinsed again with dichloromethane and dried under Argon. […]
The resulting hybrid system of Example 3, was immersed in a PBS solution as a background electrolyte for the measurements. […] The current between source and drain electrodes (Ids) was measured, while potential between drain and source electrodes (Vds), and between the gate and source electrodes (Vgs) were kept constant at 0.1V and 0.45V, respectively, recording the electrical activity occurring at the gate surface.

CC(=O)OCC[N+](C)(C)C = assay: purified protein, by the assay type; details: other: surface-bound AChE, Lineweaver-Burk plot, DTNB 5×10^−5 M
Protocol: In this test, the enzyme activity is measured by following the increase of yellow color produced from the reaction of thiocholine with the DTNB ion (Sawada, O., Ishida, T., Kihachiro, H., J. Biochem., 129, 2001, 899-907).
The reaction of acetylthiocholine-iodide with DTNB (5,5′-dithio-bis (2-nitrobenzoic acid) marker was conducted by immersing the solid substrate containing the immobilized ACHE, obtained above, in an optical cell compatible with the spectrophotometer. The rate of color production was measure at 410 nm. All of the investigated solutions were freshly prepared: ACh in phosphate buffer of pH=8.0 and the DTNB dissolved in PBS buffer of pH=6.5.
The enzyme activity was probed by two methods: Ex-situ and In-situ experiments. In the Ex-situ experiments the solution of the marker containing ACh is measured before and after the exposure to the immobilized ACHE substrate. The optical cell contains a solution composed of 2 ml of 2.5.10^−3 M ACh and 2 ml of 1.10^−4 M DTNB. The optical spectra were recorded before and after 15 min of the immobilized enzyme solution insertion to this optical cell. In the In-situ experiments, the substrate is immersed in the optical cell containing various concentrations of the DTNB/ACh solution. The hydrolysis product was followed in two ways: (a) by recording the spectra in fixed time interval and (b) by the time course mode at 410 nm. […]

T1 sequence (O42275 24-633): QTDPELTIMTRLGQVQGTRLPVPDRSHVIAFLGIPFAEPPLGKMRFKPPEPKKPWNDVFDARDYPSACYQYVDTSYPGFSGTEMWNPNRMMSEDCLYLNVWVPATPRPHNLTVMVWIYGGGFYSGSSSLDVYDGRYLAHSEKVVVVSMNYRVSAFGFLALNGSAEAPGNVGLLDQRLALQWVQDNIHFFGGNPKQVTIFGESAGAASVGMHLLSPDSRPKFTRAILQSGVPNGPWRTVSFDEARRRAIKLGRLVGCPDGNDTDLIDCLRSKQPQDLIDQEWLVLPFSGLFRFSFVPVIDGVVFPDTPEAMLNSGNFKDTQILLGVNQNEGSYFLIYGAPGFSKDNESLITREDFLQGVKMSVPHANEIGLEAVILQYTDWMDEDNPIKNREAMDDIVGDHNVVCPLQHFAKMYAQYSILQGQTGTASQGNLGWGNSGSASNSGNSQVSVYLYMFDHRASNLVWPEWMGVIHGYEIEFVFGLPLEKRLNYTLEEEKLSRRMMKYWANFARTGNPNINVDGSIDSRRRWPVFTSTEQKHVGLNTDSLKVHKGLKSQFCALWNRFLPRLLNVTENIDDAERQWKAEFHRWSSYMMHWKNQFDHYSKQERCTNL

Molecule | response of AChE-ISFET on application to the solution [1] | Km (CC(=O)OCC[N+](C)(C)C) | Vmax (CC(=O)OCC[N+](C)(C)C)
C[N+](C)(C)CCOC(N)=O.[Cl-] [Carbamylcholine] | no response | – | –
surface-bound AChE (Electrophorus electricus) | – | 310 µM | 1e-07 M/s
